Data as given in US20250154494A1, “Microfluidic Co-Encapsulation Device and System and Methods for Identifying T-Cell Receptor Ligands” (JANSSEN BIOTECH, INC., priority 2021, published 2025).

Columns and labels:
Jurkat T cells = assay: Bulk plate co-culture of TCR-expressing Jurkat T cells with B cells presenting cognate peptide, CD69 surface expression; type: cell-based; conditions: Ca^2+ in equimolar concentration to EDTA in the medium
Jurkat cells = assay: Droplet co-culture of B and T cells, CD69 surface expression by flow cytometry; type: cell-based; conditions: 8 mM Ca^2+ in T cell suspension, 2 mM EDTA in B cell suspension
Description: One day prior to encapsulation, BOLETH cells were cultured in the presence of cognate or negative control peptides at a final concentration of 1 μM. Cells were collected the next day, centrifuged at 300 g for 5 min, then resuspended in B-cell medium at a final concentration of 1.4×10^7 cells/ml. These were further supplemented with same peptide and with or without EDTA. TCR-expressing Jurkat cells were centrifuged at 300 g and resuspended in B-cell medium at a concentration of 4×10^7 cells/ml. These were then further supplemented with respective concentrations of calcium. BOLETH, Jurkat, and detergent-containing fractions were connected to the microfluidic chip as described. Pressures were applied using an OB1 MK3+ and the droplet emulsion was collected into a 1.5 ml reaction tube containing oil.
Droplets were incubated at 37° C. in a 5% CO2 humidified incubator. Following overnight incubation, droplet emulsions were disrupted by adding two volumes of Pico-Break 1 (SPHERE FLUIDICS). Tubes were quickly inverted several times and centrifuged for 15 s at 300 rpm to facilitate separation of the cell-containing fraction. […] Tubes were centrifuged for 5 min at 300 g and cell pellets were subsequently resuspended in 100 μl of FACS buffer and were analyzed via flow cytometry. […]

CD19 on BOLETH cells [1] = target: T1, CD19 on BOLETH cells (UniProt P15391 20-556, limits assumed); assay: flow cytometry; scFv secreted by Jurkat TT2 reporter cells in co-culture with BOLETH cells, 0.1 nM-10 µM cognate peptide
T1 construct: whole, on cells; also called B cell-specific transmembrane protein CD19
T1 sequence (looked up): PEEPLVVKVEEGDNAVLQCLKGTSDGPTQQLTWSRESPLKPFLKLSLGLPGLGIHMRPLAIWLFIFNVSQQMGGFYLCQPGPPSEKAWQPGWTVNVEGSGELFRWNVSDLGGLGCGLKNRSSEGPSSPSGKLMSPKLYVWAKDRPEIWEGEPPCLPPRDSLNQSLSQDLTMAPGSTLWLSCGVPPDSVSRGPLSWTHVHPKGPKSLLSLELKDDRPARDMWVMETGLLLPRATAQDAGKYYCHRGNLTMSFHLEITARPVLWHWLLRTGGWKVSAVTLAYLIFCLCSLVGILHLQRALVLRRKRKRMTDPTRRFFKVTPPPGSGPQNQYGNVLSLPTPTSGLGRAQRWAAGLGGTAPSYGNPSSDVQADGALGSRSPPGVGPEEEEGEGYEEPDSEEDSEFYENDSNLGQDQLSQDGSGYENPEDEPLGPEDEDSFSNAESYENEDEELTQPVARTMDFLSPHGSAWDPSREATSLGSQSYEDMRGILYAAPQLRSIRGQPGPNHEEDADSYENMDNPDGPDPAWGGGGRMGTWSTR

BOLETH cells = assay: Co-culture of Jurkat TT2 scFv reporter cells with BOLETH cells in presence of cognate peptide, flow cytometry; type: cell-based; conditions: 0.1 nM-10 μM cognate peptide; versus V5-tagged αCD20-scFv
CD19 on BOLETH cells [2] = target: T1, CD19 on BOLETH cells; assay: flow cytometry; BOLETH cells stained with supernatant of HEK cells transfected with tandem (T2A) constructs, anti-HA antibody
TCR signaling [3] = assay: Co-culture of SKW-3 cells expressing sleeping beauty transposon reporters with peptide-loaded B cells (GFP / HA reporter); type: cell-based; conditions: 1 μM peptide
Description: (§1) Sleeping beauty transposon reporter constructs were transfected together with transposases into T cells, 5 to 1 ratio, using the Neon transfection system following the manufacturer's protocol. The voltages used for Jurkat cells were 1350V/[…]/3 pulse, and for SKW-3 cells 1500V, […] and 1 pulse were used as settings. 48-72 hours after transfection, the cells were selected using […] Blasticidin for Jurkat and […] Blasticidin for SKW-3 cells.
(§2) Co-culture experiments were performed using round-bottom 96-well plates. P10-NBV Jurkat and SKW-3 reporter cells and B cells were seeded at a 1:1 ratio into each well. For peptide co-culture experiments, either cognate peptide or mismatched peptide is added to each well and incubated for 16 hours. For minigene-based co-culture experiments, minigene-transduced B cells harboring either the cognate of mismatch minigenes were used. Next day the cells are spun down and stained for Flow cytometry.

TCR signaling [4] = assay: Co-culture of Jurkat reporter cells carrying synthetic promoters with peptide-loaded B cells (GFP / HA reporter); type: cell-based
Description: as §1, §2

## [Ca+2] [Ca^2+]
Jurkat T cells
  T cell activation measured by surface expression of CD69: fully restores T cell activation
Jurkat cells
  T cell activation measured by CD69 surface expression in droplets: rescues Ca^2+ dependent T cell activation

B1: αCD19-scFv (clone B43), four-times V5-tagged (scFv)
scFv: EVQLVQSGAEVKKPGSSVKVSCKASGYAFSSYWMNWVRQAPGQGLEWMGQIWPGDSDTNYAQKFQGRVTITADESTSTAYMELSSLRSEDTAVYYCARRETTTVGRYYYAMDYWGQGTTVTVSSGGGGSGGGGSGGGGSDIQLTQSPSFLSASVGDRVTITCKASQSVDYSGDSYLNWYQQKPGKAPKLLIYDASNLVSGVPSRFSGSGSGTEFTLTISSLQPEDFATYYCQQSTENPWTFGGGTKLEIKGKPIPNPLLGLDSTGAGSGGKPIPNPLLGLDSTGAGSGGKPIPNPLLGLDSTGGAGSGGKPIPNPLLGLDSTGSGAGGSSL
notes: also called αCD19-scFv V5-tagged
CD19 on BOLETH cells [1]
  fold reduction in MFI compared to V5-tagged αCD20-scFv (VLVH): ~5 fold

B2: αCD19-scFv V5-tagged: αCD19 scFv (clone B43) with four-times V5 tag (protein)
scFv: EVQLVQSGAEVKKPGSSVKVSCKASGYAFSSYWMNWVRQAPGQGLEWMGQIWPGDSDTNYAQKFQGRVTITADESTSTAYMELSSLRSEDTAVYYCARRETTTVGRYYYAMDYWGQGTTVTVSSGGGGSGGGGSGGGGSDIQLTQSPSFLSASVGDRVTITCKASQSVDYSGDSYLNWYQQKPGKAPKLLIYDASNLVSGVPSRFSGSGSGTEFTLTISSLQPEDFATYYCQQSTENPWTFGGGTKLEIKGKPIPNPLLGLDSTGAGSGGKPIPNPLLGLDSTGAGSGGKPIPNPLLGLDSTGGAGSGGKPIPNPLLGLDSTGSGAGGSSL
BOLETH cells
  reduction in MFI: about 5 fold

B3: αCD19-scFv (clone B43), VH-VL, tagged with six HA epitope tags at its C-terminus (scFv)
scFv: EVQLVQSGAEVKKPGSSVKVSCKASGYAFSSYWMNWVRQAPGQGLEWMGQIWPGDSDTNYAQKFQGRVTITADESTSTAYMELSSLRSEDTAVYYCARRETTTVGRYYYAMDYWGQGTTVTVSSGGGGSGGGGSGGGGSDIQLTQSPSFLSASVGDRVTITCKASQSVDYSGDSYLNWYQQKPGKAPKLLIYDASNLVSGVPSRFSGSGSGTEFTLTISSLQPEDFATYYCQQSTENPWTFGGGTKLEIKGAGSYPYDVPDYAGAGSYPYDVPDYAGGSYPYDVPDYAGGAGSYPYDVPDYAGAGSYPYDVPDYAGAGSYPYDVPDYAG
notes: also called αCD19-HA; B43-HA
CD19 on BOLETH cells [2]
  binding result: binds

B4: NBV promoter: synthetic TCR responsive promoter, SEQ ID NO:50 (nucleic acid)
DNA: GAATTCAAGTACCGTGCAGGAGGAAAAACTGTTTCATACAGAAGGCGTGGGCTATGCAAATCGAAACGCTGGAAACACTGAGTAATCAGATCAAGTCATGTTTCCATTTGAATGCAAATGGATACAGAAGGCGTGGAGGAAAAACTGTTTCCTGTTCCAATAGACGCCCTTTTTGAATGCAAATGGCGAGCTCATGGGTTTCTCCACCAAGGTGACGAGTGGAAAATCTGACTCAGAATTATCCCTTGTTATGCAAATCGCCCAAAGAGGAAAATTTGTTTCATAGAACATACTGTCTCAAATAGACGCCTCCTCGAGCGTTTCCCGGGGTACC
TCR signaling [3]
  HA and GFP fluorescence intensities with 2 copies of promoter instead of 1: doubled
TCR signaling [4]; sleeping beauty constructs
  GFP and HA reporter gene expression in sleeping beauty constructs: high GFP and HA reporter gene expression
TCR signaling [4]; sleeping beauty transposon reporters in Jurkat cells, 1 μM peptide
  GFP and HA median intensity compared to NFAT promoters: best signal
TCR signaling [4]; sleeping beauty transposon system, different concentrations of cognate peptide
  intensity of HA and GFP signals compared to 4×NFAT: higher intensity of both HA and GFP signals
